Target: recombinant H5-HA, A/Vietnam/1203/2004 (H5N1) (Influenza A virus A/Vietnam/1203/2004 …, UniProt Q5EP31, strain)
Assay: SPR
Settings: both partners purified

| Binder | Kd [nM] |
| --- | --- |
| R1a-A5 monovalent (VHH, source: E. coli WK6, periplasmic extract, purified (Talon IMAC, Superdex 75 SEC)) VHH: QVQLVESGGGLVQPGGSLRLSCSASGSAVLFSTYPMSWYRQAPGKQRELVAAVTTDGSTSYADYAKGRFTISRDNAKNTVYLQMNSLKPEDTAVYYCNARDGFFNRYDYWGQGTQVTVSS | 0.27 |
| R1a-B6 monovalent (VHH, source: E. coli WK6, periplasmic extract, purified (Talon IMAC, Superdex 75 SEC)) VHH: QVQLVESGGGLVQPGGSLRLSCAASGSFFSRYRMGWYRQAPGEQRELVASIAYDGSTSYADPVKGRFTISRDNANTVHLQMYSLKPDDTAVYYCNLDPPGILYWGQGTQVTVSS | 0.51 |

From PMC4118869 (PLoS ONE, 2014)
